What was measured:
DnaK peptide E20 = target: T1, DnaK peptide E20 (P. aeruginosa); experiment: peptide or protein array; SPOT membrane of 209 synthetic 15-mer peptides (shift of 3) spanning DnaK on cellulose; probed with purified recombinant FliC (GST cleaved); bound FliC detected with anti-FliC antibody and alkaline phosphatase secondary antibody; intensity by ImageJ, background subtracted; details: both partners purified
T1 construct: 15-residue stretch of P. aeruginosa DnaK, spot E20 of the DnaK SPOT membrane, domain NBD (ATPase); also called E20 (DnaK membrane); source: synthetic peptide, SPOT membrane (cellulose)
T1 peptide: VGGQTRMPLVQKTVA

DnaK peptide H13 = target: T2, DnaK peptide H13 (P. aeruginosa); experiment: as above; details: both partners purified
T2 construct: 15-residue stretch of P. aeruginosa DnaK, spot H13 of the DnaK SPOT membrane, domain SBD; source: synthetic peptide, SPOT membrane (cellulose)
T2 peptide: ARNQGDALVHATRKM

DnaK peptide E18 = target: T3, DnaK peptide E18 (P. aeruginosa); experiment: as above; details: both partners purified
T3 construct: 15-residue stretch of P. aeruginosa DnaK, spot E18 of the DnaK SPOT membrane, domain NBD (ATPase); source: synthetic peptide, SPOT membrane (cellulose)
T3 peptide: IHEVILVGGQTRMPL

DnaK peptide H14 = target: T4, DnaK peptide H14 (P. aeruginosa); experiment: as above; details: both partners purified
T4 construct: 15-residue stretch of P. aeruginosa DnaK, spot H14 of the DnaK SPOT membrane, domain SBD; source: synthetic peptide, SPOT membrane (cellulose)
T4 peptide: QGDALVHATRKMITE

FliC peptide F22 = target: T5, FliC peptide F22 (P. aeruginosa); experiment: peptide or protein array; SPOT membrane of 159 synthetic 15-mer peptides (shift of 3) spanning FliC on cellulose; probed with purified recombinant DnaK (GST cleaved); bound DnaK detected with anti-DnaK antibody and alkaline phosphatase secondary antibody; intensity by ImageJ, background subtracted; details: both partners purified
T5 construct: 15-residue stretch of P. aeruginosa FliC, spot F22 of the FliC SPOT membrane, domain D1; source: synthetic peptide, SPOT membrane (cellulose)
T5 peptide: NRFKNTIDNLTNISE

FliC peptide F19 = target: T6, FliC peptide F19 (P. aeruginosa); experiment: as above; details: both partners purified
T6 construct: 15-residue stretch of P. aeruginosa FliC, spot F19 of the FliC SPOT membrane, domain D1; source: synthetic peptide, SPOT membrane (cellulose)
T6 peptide: QRADLGAVQNRFKNT

FliC peptide E21 = target: T7, FliC peptide E21 (P. aeruginosa); experiment: as above; details: both partners purified
T7 construct: 15-residue stretch of P. aeruginosa FliC, spot E21 of the FliC SPOT membrane, domain D2; source: synthetic peptide, SPOT membrane (cellulose)
T7 peptide: TVVTGYVQLNSPTAY

FliC peptide A9 = target: T8, FliC peptide A9 (P. aeruginosa); experiment: as above; details: both partners purified
T8 construct: 15-residue stretch of P. aeruginosa FliC, spot A9 of the FliC SPOT membrane, domain D0; source: synthetic peptide, SPOT membrane (cellulose)
T8 peptide: LNTSLQRLTTGYRIN

FliC peptide B18 = target: T9, FliC peptide B18 (P. aeruginosa); experiment: as above; details: both partners purified
T9 construct: 15-residue stretch of P. aeruginosa FliC, spot B18 of the FliC SPOT membrane, domain D1; source: synthetic peptide, SPOT membrane (cellulose)
T9 peptide: TRISDTTTFGGRKLL

FliC peptide A10 = target: T10, FliC peptide A10 (P. aeruginosa); experiment: as above; details: both partners purified
T10 construct: 15-residue stretch of P. aeruginosa FliC, spot A10 of the FliC SPOT membrane, domain D0; source: synthetic peptide, SPOT membrane (cellulose)
T10 peptide: SLQRLTTGYRINSAK

FliC peptide E22 = target: T11, FliC peptide E22 (P. aeruginosa); experiment: as above; details: both partners purified
T11 construct: 15-residue stretch of P. aeruginosa FliC, spot E22 of the FliC SPOT membrane, domain D2; source: synthetic peptide, SPOT membrane (cellulose)
T11 peptide: TGYVQLNSPTAYSVS

FliC peptide A16 = target: T12, FliC peptide A16 (P. aeruginosa); experiment: as above; details: both partners purified
T12 construct: 15-residue stretch of P. aeruginosa FliC, spot A16 of the FliC SPOT membrane, domain D1; source: synthetic peptide, SPOT membrane (cellulose)
T12 peptide: AGLQISNRLSNQISG

FliC peptide E20 = target: T13, FliC peptide E20 (P. aeruginosa); experiment: as above; details: both partners purified
T13 construct: 15-residue stretch of P. aeruginosa FliC, spot E20 of the FliC SPOT membrane, domain D2; also called E20 (FliC membrane); source: synthetic peptide, SPOT membrane (cellulose)
T13 peptide: ATTTVVTGYVQLNSP

FliC peptide C20 = target: T14, FliC peptide C20 (P. aeruginosa); experiment: as above; details: both partners purified
T14 construct: 15-residue stretch of P. aeruginosa FliC, spot C20 of the FliC SPOT membrane, domain D3; source: synthetic peptide, SPOT membrane (cellulose)
T14 peptide: VGGGQVKNIAIAAGD

FliC peptide D20 = target: T15, FliC peptide D20 (P. aeruginosa); experiment: as above; details: both partners purified
T15 construct: 15-residue stretch of P. aeruginosa FliC, spot D20 of the FliC SPOT membrane, domain D2; source: synthetic peptide, SPOT membrane (cellulose)
T15 peptide: LADQLNSNSSKLGIT

FliC peptide D5 = target: T16, FliC peptide D5 (P. aeruginosa); experiment: as above; details: both partners purified
T16 construct: 15-residue stretch of P. aeruginosa FliC, spot D5 of the FliC SPOT membrane, domain D3; source: synthetic peptide, SPOT membrane (cellulose)
T16 peptide: IPNLSARARTVFTAD

[1] = target: SOD1bar mutant G41D (SOD1bar-G41D), FRET folding sensor; experiment: cell-based or functional assay

B1: purified recombinant P. aeruginosa FliC (natural protein, UniProt A0A0H2Z7X1 1-488, looked up)
chain: MALTVNTNIASLNTQRNLNASSNDLNTSLQRLTTGYRINSAKDDAAGLQISNRLSNQISGLNVATRNANDGISLAQTAEGALQQSTNILQRIRDLALQSANGSNSDADRAALQKEVAAQQAELTRISDTTTFGGRKLLDGSFGTTSFQVGSNAYETIDISLQNASASAIGSYQVGSNGAGTVASVAGTATASGIASGTVNLVGGGQVKNIAIAAGDSAKAIAEKMDGAIPNLSARARTVFTADVSGVTGGSLNFDVTVGSNTVSLAGVTSTQDLADQLNSNSSKLGITASINDKGVLTITSATGENVKFGAQTGTATAGQVAVKVQGSDGKFEAAAKNVVAAGTAATTTVVTGYVQLNSPTAYSVSGTGTQASQVFGNASAAQKSSVASVDISTADGAQNAIAVVDNALAAIDAQRADLGAVQNRFKNTIDNLTNISENATNARSRIKDTDFAAETAALSKNQVLQQAGTAILAQANQLPQAVLSLLR
notes: FliC (flagellin type B) of P. aeruginosa UCBPP-PA14, gene amplified with primers fliCFw/Rv and cloned BamHI/XhoI into pGEX-6P-1; also called FliC-GST (before cleavage); source: E. coli BL21(λDE3), pGEX-6P-1-fliC, purified (Glutathione Sepharose 4B, eluted by prescission protease)
**Q.** What does the source list for B1?
**A.** Intensity (DnaK peptide E20): 2.22 relative intensity; Intensity (DnaK peptide H13): 2.23 relative intensity; Intensity (DnaK peptide E18): 2.23 relative intensity; Intensity (DnaK peptide H14): 3.34 relative intensity

B2: purified recombinant P. aeruginosa DnaK (natural protein)
chain: not shown
notes: DnaK of P. aeruginosa UCBPP-PA14, gene amplified with primers dnaKFw/Rv and cloned BamHI/XhoI into pGEX-6P-1; also called DnaK-GST (before cleavage); source: E. coli BL21(λDE3), pGEX-6P-1-dnaK, purified (Glutathione Sepharose 4B, eluted by prescission protease)
**Q.** How did the Intensity (FliC peptide F22) turn out when B2 was run?
**A.** 2.3 relative intensity

**Q.** What about the Intensity (FliC peptide F19) of the same binder?
**A.** 2.34 relative intensity

**Q.** And the Intensity (FliC peptide E21)?
**A.** 2.87 relative intensity

**Q.** And the Intensity (FliC peptide A9)?
**A.** 2.51 relative intensity

**Q.** And the Intensity (FliC peptide B18)?
**A.** 5.07 relative intensity

**Q.** And the Intensity (FliC peptide A10)?
**A.** 2.4 relative intensity

**Q.** And the Intensity (FliC peptide E22)?
**A.** 3.55 relative intensity

**Q.** And the Intensity (FliC peptide A16)?
**A.** 4.17 relative intensity

**Q.** What about the Intensity (FliC peptide E20) of the same binder?
**A.** 2.36 relative intensity

**Q.** And the Intensity (FliC peptide C20)?
**A.** 3.05 relative intensity

**Q.** And the Intensity (FliC peptide D20)?
**A.** 2.85 relative intensity

**Q.** What about the Intensity (FliC peptide D5) of the same binder?
**A.** 2.22 relative intensity

**Q.** And the “decrease of the melting temperature (Tm) of SOD1bar-G41D with DnaK (20 μM), pH 7, fast relaxation imaging (FReI); not affected by ATP or AMP-PNP” value [1]?
**A.** ~10 K

**Q.** And the “fold decrease of the maximal ΔD/A Initial of DnaK+SOD1bar-G41D at pH 6 when 2 mM ATP or AMP-PNP was added” value [1]?
**A.** ~1.7 fold

**Q.** And the “fold increase of kobs of the ΔD/A Initial curve of DnaK+SOD1bar-G41D at pH 6 when 2 mM AMP-PNP was added” value [1]?
**A.** 2 fold

**Q.** What about the “fold increase of kobs of the ΔD/A Initial curve of DnaK+SOD1bar-G41D at pH 6 when 2 mM ATP was added” value [1] of the same binder?
**A.** 4 fold

**Q.** And the “melting temperature (Tm) of SOD1bar-G41D when supplemented with DnaK, FReI” value [1]?
**A.** 308 K

**Q.** And the “reduction of the folding rate (kf) of SOD1bar-G41D at 310 K with DnaK (20 μM), pH 7, FReI” value [1]?
**A.** ~3 fold
